Changes are numbered by the printed parent chain.
Assays:
Assay in all cases: EMSA
Conditions in all cases: derived from FIG. 2D
[1] = target: T1, XylR wild-type (Escherichia coli) (UniProt P0ACI3)
T1 sequence: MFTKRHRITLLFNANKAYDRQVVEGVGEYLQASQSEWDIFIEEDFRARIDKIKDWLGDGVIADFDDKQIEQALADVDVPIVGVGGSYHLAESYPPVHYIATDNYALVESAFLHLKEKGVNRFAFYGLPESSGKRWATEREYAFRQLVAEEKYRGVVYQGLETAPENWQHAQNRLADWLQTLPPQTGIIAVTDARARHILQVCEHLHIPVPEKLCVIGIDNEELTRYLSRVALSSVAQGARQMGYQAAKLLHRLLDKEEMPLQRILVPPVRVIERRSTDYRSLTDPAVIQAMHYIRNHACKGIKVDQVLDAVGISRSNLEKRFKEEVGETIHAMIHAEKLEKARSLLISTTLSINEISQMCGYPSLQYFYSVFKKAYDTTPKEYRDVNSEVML

[2] = target: T2, XylR R121C R121C (Escherichia coli) (UniProt P0ACI3)
T2 sequence: T1 sequence with R121C

[3] = target: T3, XylR P363S P363S (Escherichia coli) (UniProt P0ACI3)
T3 sequence: T1 sequence with P363S

Row | Substance | Kd [1] [nM] | Kd [2] [nM] | Kd [3] [nM] | Kd ([3]; value as printed) [nM]
1 | XylR binding site IA | 38.5 | 2.7 | 12.4 | –
2 | XylR binding site IF | 19.6 | 4 | – | 27

Reference: US20160362456
